Results taken from US20260008817A1, “CYCLIC PEPTIDE OR SALT THEREOF, AND USES THEREOF” (FUJIFILM Corporation, priority 2023, published 2026).
Positions of bridges follow the written chain, without caps; N, C: chain ends. No end group written: not given here. COCH2 = acetyl group that carries the bridge

Target: T1, Recombinant Human FGFR1 alpha (IIIc) Fc Chimera Protein (Homo sapiens, UniProt P11362)
T1 construct: purchased R&D systems 658-FR-050
Experiment: ELISA binding affinity of enzymatically synthesized peptide to FGFR
Conditions: ELISA luminescence signal at 10 nmol/L peptide, SEQ ID NO: 239 standardized to 1; enzyme synthesis product
Protocol: The binding affinity of the peptide to FGFR was evaluated using an ELISA method.
The peptide used for the evaluation was enzymatically synthesized by the following method.
First, a fusion peptide (SEQ ID NO: 25) in which a translation enhancing sequence (SEQ ID NO: 22), a peptide, a Myc tag (SEQ ID NO: 23), and a HiBiT tag (SEQ ID NO: 24) were linked in this order was designed. Next, a template DNA sequence (SEQ ID NO: 26) was designed in which a T7 promoter sequence, a Shine-Dalgarno sequence, a sequence necessary for transcription and translation initiation, such as a start codon (ATG), was provided on the 5′ terminal side of the DNA sequence encoding the fused peptide, and a stop codon group was provided on the 3′ terminal side thereof. In a case where the triplet TAG codon is included in the template DNA sequence, the above-described codon is assigned to the codon of chloroacetylated lysine, and thus, the peptide encoded by the above-described DNA sequence is a cyclic peptide in which a thiol group of cysteine and a chloroacetyl group of chloroacetylated lysine spontaneously form a thioether bond.
The cell-free enzymatic synthesis of the polypeptide was performed in a translation solution containing a template DNA, PUREfrex 2.0 (GeneFrontier, PF201-0.25-5), and Aminoacyl tRNA (1). 1.75 μL ([…]) of the template DNA prepared to 50 ng/μL, 2.5 μL of PUREfrex 2.0 Solution I, 0.25 μL of Solution II, 0.5 μL of Solution III, and a dried product of Aminoacyl tRNA (1) (final concentration: 0.5 ng/μL) were mixed and mixture was subjected to a reaction at 37° C. for 1 hour.
The concentration of the enzymatically synthesized peptide was measured using the peptide diluted with Can Get Signal Immunoreaction Enhancer Solution I (TOYOBO, NKB-101), Nano-Glo HiBiT Lytic Detection System (Promega, N3040), and a chemical synthetic peptide for a calibration curve having a known concentration (SEQ ID NO: 33) according to the standard protocol of the Nano-Glo HiBiT Lytic Detection System.
The binding affinity of the enzymatically synthesized peptide to FGFR was measured by evaluating the amount of the peptide bound to FGFR by ELISA.
First, 5 ng of Recombinant Human FGFR1 alpha (IIIc) Fc Chimera Protein (R&D systems, 658-FR-050) was immobilized in each well of a 96-well plate, and blocked with Pierce Protein-Free (PBS) Blocking Buffer (Thermo, 37572), and a peptide diluted with Can Get Signal Immunoreaction Enhancer Solution I (TOYOBO, NKB-101) was then added and reacted at room temperature for 3 hours. After washing with 0.05% Tween 20-containing phosphate buffered saline (PBS), an anti-Myc antibody (Cell Signaling, 14038S) diluted with Can Get Signal Immunoreaction Enhancer Solution II (TOYOBO, NKB-101) was added and reacted at room temperature for 2 hours. After washing with 0.05% Tween 20-containing PBS, SuperSignal ELISA Femto Substrate (Thermo, 37075) was added, and the luminescence amount was measured. The dose-response relationship was calculated from using the difference between the luminescence amount in the well in which FGFR was immobilized and the luminescence amount in the well in which FGFR was not immobilized, and the concentration of the peptide at the time of reaction, and the binding affinity to FGFR was evaluated according to the following evaluation criteria. The evaluation result preferably satisfies the evaluation criteria A, B, or C.
In a case where a value of a luminescence signal emitted by the cyclic peptide set forth in SEQ ID NO: 239 at a reaction concentration of 10 nmol/L is standardized to 1, evaluation criteria of the luminescence signal value emitted by the peptide at a reaction concentration of 10 nmol/L is as follows. • A: 0.7 or more • B: 0.5 or more and less than 0.7 • C: 0.1 or more and less than 0.5 • D: less than 0.1.

T1 sequence (P11362 with tags, fused parts or gaps limits assumed): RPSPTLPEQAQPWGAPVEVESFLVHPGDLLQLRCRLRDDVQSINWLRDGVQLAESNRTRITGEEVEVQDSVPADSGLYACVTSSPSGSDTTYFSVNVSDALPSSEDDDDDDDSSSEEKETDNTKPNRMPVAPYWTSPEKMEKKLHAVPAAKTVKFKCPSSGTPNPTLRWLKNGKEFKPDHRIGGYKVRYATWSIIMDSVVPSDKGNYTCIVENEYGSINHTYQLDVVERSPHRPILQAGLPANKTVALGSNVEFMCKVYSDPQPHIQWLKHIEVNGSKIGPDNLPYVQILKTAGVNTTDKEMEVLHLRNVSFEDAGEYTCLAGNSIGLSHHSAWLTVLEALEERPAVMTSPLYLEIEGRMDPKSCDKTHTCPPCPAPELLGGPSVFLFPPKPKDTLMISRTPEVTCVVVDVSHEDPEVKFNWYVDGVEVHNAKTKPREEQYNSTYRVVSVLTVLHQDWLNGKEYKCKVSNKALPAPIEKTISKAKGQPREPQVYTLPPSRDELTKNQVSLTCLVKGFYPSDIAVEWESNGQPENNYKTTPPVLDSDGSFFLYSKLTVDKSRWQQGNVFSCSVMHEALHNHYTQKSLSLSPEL

Substance: 95 (ICVYTFDWHAHSLHAALTK(COCH2)I; thioether 2-19 (inferred)) [compound 95]
- Evaluation result of binding affinity to FGFR: C (0.1 or more and less than 0.5)

Substance: 96 (ICVYTFDNHAHSLHAALTK(COCH2)I; thioether 2-19 (inferred)) [compound 96]
- Evaluation result of binding affinity to FGFR: C (0.1 or more and less than 0.5)

Substance: 97 (ICVYTFDQHAHSLHAALTK(COCH2)I; thioether 2-19 (inferred)) [compound 97]
- Evaluation result of binding affinity to FGFR: A (0.7 or more)

Substance: 98 (ICVYTFDSHAHSLHAALTK(COCH2)I; thioether 2-19 (inferred)) [compound 98]
- Evaluation result of binding affinity to FGFR: A (0.7 or more)

Substance: 99 (ICVYTFDTHAHSLHAALTK(COCH2)I; thioether 2-19 (inferred)) [compound 99]
- Evaluation result of binding affinity to FGFR: C (0.1 or more and less than 0.5)

Substance: 100 (ICVYTFDEHAHSLHAALTKI; Description of Artificial Sequence: Cyclic peptide) [compound 100]
- Evaluation result of binding affinity to FGFR: A (0.7 or more)

Substance: 101 (ICVYTFDRHAHSLHAALTKI; Description of Artificial Sequence: Cyclic peptide) [compound 101]
- Evaluation result of binding affinity to FGFR: A (0.7 or more)

Substance: 102 (ICVYTFDHHAHSLHAALTKI; Description of Artificial Sequence: Cyclic peptide) [compound 102]
- Evaluation result of binding affinity to FGFR: B (0.5 or more and less than 0.7)

Substance: 103 (ICVYTFDAAAHSLHAALTKI; Description of Artificial Sequence: Cyclic peptide) [compound 103]
- Evaluation result of binding affinity to FGFR: A (0.7 or more)

Substance: 104 (ICVYTFDAGAHSLHAALTKI; Description of Artificial Sequence: Cyclic peptide) [compound 104]
- Evaluation result of binding affinity to FGFR: A (0.7 or more)

Substance: 105 (ICVYTFDALAHSLHAALTKI; Description of Artificial Sequence: Cyclic peptide) [compound 105]
- Evaluation result of binding affinity to FGFR: A (0.7 or more)

Substance: 106 (ICVYTFDAIAHSLHAALTKI; Description of Artificial Sequence: Cyclic peptide) [compound 106]
- Evaluation result of binding affinity to FGFR: C (0.1 or more and less than 0.5)

Substance: 107 (ICVYTFDAVAHSLHAALTKI; Description of Artificial Sequence: Cyclic peptide) [compound 107]
- Evaluation result of binding affinity to FGFR: C (0.1 or more and less than 0.5)

Substance: 108 (ICVYTFDAFAHSLHAALTKI; Description of Artificial Sequence: Cyclic peptide) [compound 108]
- Evaluation result of binding affinity to FGFR: B (0.5 or more and less than 0.7)

Substance: 109 (ICVYTFDAYAHSLHAALTKI; Description of Artificial Sequence: Cyclic peptide) [compound 109]
- Evaluation result of binding affinity to FGFR: B (0.5 or more and less than 0.7)

Substance: 110 (ICVYTFDAWAHSLHAALTKI; Description of Artificial Sequence: Cyclic peptide) [compound 110]
- Evaluation result of binding affinity to FGFR: C (0.1 or more and less than 0.5)

Substance: 111 (ICVYTFDANAHSLHAALTKI; Description of Artificial Sequence: Cyclic peptide) [compound 111]
- Evaluation result of binding affinity to FGFR: A (0.7 or more)

Substance: 112 (ICVYTFDAQAHSLHAALTKI; Description of Artificial Sequence: Cyclic peptide) [compound 112]
- Evaluation result of binding affinity to FGFR: A (0.7 or more)

Substance: 113 (ICVYTFDASAHSLHAALTKI; Description of Artificial Sequence: Cyclic peptide) [compound 113]
- Evaluation result of binding affinity to FGFR: A (0.7 or more)

Substance: 114 (ICVYTFDATAHSLHAALTKI; Description of Artificial Sequence: Cyclic peptide) [compound 114]
- Evaluation result of binding affinity to FGFR: A (0.7 or more)

Substance: 115 (ICVYTFDADAHSLHAALTKI; Description of Artificial Sequence: Cyclic peptide) [compound 115]
- Evaluation result of binding affinity to FGFR: A (0.7 or more)

Substance: 116 (ICVYTFDAEAHSLHAALTKI; Description of Artificial Sequence: Cyclic peptide) [compound 116]
- Evaluation result of binding affinity to FGFR: A (0.7 or more)

Substance: 117 (ICVYTFDARAHSLHAALTKI; Description of Artificial Sequence: Cyclic peptide) [compound 117]
- Evaluation result of binding affinity to FGFR: A (0.7 or more)

Substance: 118 (ICVYTFDAHGHSLHAALTKI; Description of Artificial Sequence: Cyclic peptide) [compound 118]
- Evaluation result of binding affinity to FGFR: C (0.1 or more and less than 0.5)

Substance: 119 (ICVYTFDAHIHSLHAALTKI; Description of Artificial Sequence: Cyclic peptide) [compound 119]
- Evaluation result of binding affinity to FGFR: C (0.1 or more and less than 0.5)

Substance: 120 (ICVYTFDAHVHSLHAALTKI; Description of Artificial Sequence: Cyclic peptide) [compound 120]
- Evaluation result of binding affinity to FGFR: C (0.1 or more and less than 0.5)

Substance: 121 (ICVYTFDAHFHSLHAALTKI; Description of Artificial Sequence: Cyclic peptide) [compound 121]
- Evaluation result of binding affinity to FGFR: C (0.1 or more and less than 0.5)

Substance: 122 (ICVYTFDAHYHSLHAALTKI; Description of Artificial Sequence: Cyclic peptide) [compound 122]
- Evaluation result of binding affinity to FGFR: C (0.1 or more and less than 0.5)

Substance: 123 (ICVYTFDAHWHSLHAALTKI; Description of Artificial Sequence: Cyclic peptide) [compound 123]
- Evaluation result of binding affinity to FGFR: C (0.1 or more and less than 0.5)

Substance: 124 (ICVYTFDAHQHSLHAALTKI; Description of Artificial Sequence: Cyclic peptide) [compound 124]
- Evaluation result of binding affinity to FGFR: B (0.5 or more and less than 0.7)

Substance: 125 (ICVYTFDAHSHSLHAALTKI; Description of Artificial Sequence: Cyclic peptide) [compound 125]
- Evaluation result of binding affinity to FGFR: C (0.1 or more and less than 0.5)

Substance: 126 (ICVYTFDAHTHSLHAALTKI; Description of Artificial Sequence: Cyclic peptide) [compound 126]
- Evaluation result of binding affinity to FGFR: C (0.1 or more and less than 0.5)

Substance: 127 (ICVYTFDAHDHSLHAALTKI; Description of Artificial Sequence: Cyclic peptide) [compound 127]
- Evaluation result of binding affinity to FGFR: C (0.1 or more and less than 0.5)

Substance: 128 (ICVYTFDAHEHSLHAALTKI; Description of Artificial Sequence: Cyclic peptide) [compound 128]
- Evaluation result of binding affinity to FGFR: C (0.1 or more and less than 0.5)

Substance: 129 (ICVYTFDAHRHSLHAALTKI; Description of Artificial Sequence: Cyclic peptide) [compound 129]
- Evaluation result of binding affinity to FGFR: C (0.1 or more and less than 0.5)
